Test results published in US20040258705A1, “Use of lectins to promote oligomerization of glycoproteins and antigenic molecules” (Antigenics Inc., priority 2003, published 2004).

What was measured:
[1] = tested on: Meth A-specific CD4+ T cell clone 24D3 with irradiated BALB/c splenocytes; test: Meth A in vitro antigen representation assay; format: cell-based, mouse (BALB/c); settings: Meth A gp96; versus matched preparation without buffer exchange; IL-5 ELISA
Description: Materials: irradiated BALB/c splenocytes were used as the Antigen Presenting Cells (APCs). The Meth A-specific CD4^+ T cell clone, 24D3, was used. They are restricted by the MHClI molecule I-Ed, and are specific for the antigenic peptide contained within the sequence […]. The medium used for this assay was RPMI 1640 (Gibco-BRL). […] The wild-type form of the L 1 peptide ([…]) was used as a negative control, and the mutated form of the L11 peptide ([…]) was used as the positive control.
The resulting supernatant was further purified using Con A and DEAE chromatography.
Re-Presentation Assay: 2×104 of Meth A specific CD4^+ T cell clones (24D3) were incubated with 5×105 of irradiated BALB/c splenic APCs in the presence of various concentration of gp96 derived from Meth A or other sources (100, 50, 25, 12.5, 6.25 μg/ml final concentration) for 48-72 hrs in the 96 well flat bottom plate in 200 μl of final volume. Wild type ribosomal protein L11 peptide and mutated ribosomal protein L11 peptide were added in replicate wells and used as a negative control or positive control respectively. After 48-72 hours of incubation at 37° C., 5% CO2, 100 μl of supernatant was taken and IL-5 production was measured by ELISA.

Meth A cells = test: In vivo Meth A tumor inhibition (tumor protection / rejection) assay; design: species or system BALB/c mice; settings: Meth A gp96, dose of 10 μg intradermally day 0 and 7; versus matched preparation without buffer exchange
Protocol: (§1) In vivo Meth A growth inhibition assay: BALB/c mice (n=30/group) were immunized on day 0 and day 7 with 10 or 50 μg of gp96 intradermally in the flank. On study day 14, mice were challenged with 1×10^5 Meth A cells intradermally in a total volume of 100 μl. Growing tumors were monitored during the subsequent four weeks. All animals were euthanized on study day 41 after a final tumor measurement. Data was reported as percentage of animals that are tumor-free on study day 41. Control groups included un-immunized (diluent—negative control) and immunized with irradiated Meth A cells (positive control).
as §1, with “(n=10/group)” for “(n=30/group)”, “10” for “10 or 50”, “gl.” for “μl.”
as §1, with “(n=10/group)” for “(n=30/group)”, “10” for “10 or 50”
as §1, with “mice (n=10/group)” for “mice (n=30/group)”, “with 0.3” for “with 10”, “or 3” for “or 50”, “gp96 alone or in combination with Con A” for “gp96”

B1: Meth A gp96 (Bx): Meth A gp96 prepared with buffer exchange step between Con A and DEAE columns, increased Con A content (protein, UniProt P08113 22-802, looked up)
Endoplasmin: DDEVDVDGTVEEDLGKSREGSRTDDEVVQREEEAIQLDGLNASQIRELREKSEKFAFQAEVNRMMKLIINSLYKNKEIFLRELISNASDALDKIRLISLTDENALAGNEELTVKIKCDKEKNLLHVTDTGVGMTREELVKNLGTIAKSGTSEFLNKMTEAQEDGQSTSELIGQFGVGFYSAFLVADKVIVTSKHNNDTQHIWESDSNEFSVIADPRGNTLGRGTTITLVLKEEASDYLELDTIKNLVRKYSQFINFPIYVWSSKTETVEEPLEEDEAAKEEKEESDDEAAVEEEEEEKKPKTKKVEKTVWDWELMNDIKPIWQRPSKEVEEDEYKAFYKSFSKESDDPMAYIHFTAEGEVTFKSILFVPTSAPRGLFDEYGSKKSDYIKLYVRRVFITDDFHDMMPKYLNFVKGVVDSDDLPLNVSRETLQQHKLLKVIRKKLVRKTLDMIKKIADEKYNDTFWKEFGTNIKLGVIEDHSNRTRLAKLLRFQSSHHSTDITSLDQYVERMKEKQDKIYFMAGSSRKEAESSPFVERLLKKGYEVIYLTEPVDEYCIQALPEFDGKRFQNVAKEGVKFDESEKTKESREATEKEFEPLLNWMKDKALKDKIEKAVVSQRLTESPCALVASQYGWSGNMERIMKAQAYQTGKDISTNYYASQKKTFEINPRHPLIRDMLRRIKEDEDDKTVMDLAVVLFETATLRSGYLLPDTKAYGDRIERMLRLSLNIDPEAQVEEEPEEEPEDTSEDAEDSEQDEGEEMDAGTEEEEEETEKESTEKDEL
modifications: tumor-derived; contains Con A
notes: Meth A gp96 prepared with buffer exchange step between Con A and DEAE columns, increased Con A content
in vitro activity in the Meth A representation assay [1]: higher in vitro antigen representation
in vivo tumor protection activity (Meth A cells): higher in vivo tumor protection activity
